Laboratory results from paper PMC4926069.

Target: Angiotensin I-converting enzyme (ACE, EC 3.4.15.1, from rabbit lung) (rabbit) (UniProt P12822)
UniProt P12822, sequence (P12822 34-1310): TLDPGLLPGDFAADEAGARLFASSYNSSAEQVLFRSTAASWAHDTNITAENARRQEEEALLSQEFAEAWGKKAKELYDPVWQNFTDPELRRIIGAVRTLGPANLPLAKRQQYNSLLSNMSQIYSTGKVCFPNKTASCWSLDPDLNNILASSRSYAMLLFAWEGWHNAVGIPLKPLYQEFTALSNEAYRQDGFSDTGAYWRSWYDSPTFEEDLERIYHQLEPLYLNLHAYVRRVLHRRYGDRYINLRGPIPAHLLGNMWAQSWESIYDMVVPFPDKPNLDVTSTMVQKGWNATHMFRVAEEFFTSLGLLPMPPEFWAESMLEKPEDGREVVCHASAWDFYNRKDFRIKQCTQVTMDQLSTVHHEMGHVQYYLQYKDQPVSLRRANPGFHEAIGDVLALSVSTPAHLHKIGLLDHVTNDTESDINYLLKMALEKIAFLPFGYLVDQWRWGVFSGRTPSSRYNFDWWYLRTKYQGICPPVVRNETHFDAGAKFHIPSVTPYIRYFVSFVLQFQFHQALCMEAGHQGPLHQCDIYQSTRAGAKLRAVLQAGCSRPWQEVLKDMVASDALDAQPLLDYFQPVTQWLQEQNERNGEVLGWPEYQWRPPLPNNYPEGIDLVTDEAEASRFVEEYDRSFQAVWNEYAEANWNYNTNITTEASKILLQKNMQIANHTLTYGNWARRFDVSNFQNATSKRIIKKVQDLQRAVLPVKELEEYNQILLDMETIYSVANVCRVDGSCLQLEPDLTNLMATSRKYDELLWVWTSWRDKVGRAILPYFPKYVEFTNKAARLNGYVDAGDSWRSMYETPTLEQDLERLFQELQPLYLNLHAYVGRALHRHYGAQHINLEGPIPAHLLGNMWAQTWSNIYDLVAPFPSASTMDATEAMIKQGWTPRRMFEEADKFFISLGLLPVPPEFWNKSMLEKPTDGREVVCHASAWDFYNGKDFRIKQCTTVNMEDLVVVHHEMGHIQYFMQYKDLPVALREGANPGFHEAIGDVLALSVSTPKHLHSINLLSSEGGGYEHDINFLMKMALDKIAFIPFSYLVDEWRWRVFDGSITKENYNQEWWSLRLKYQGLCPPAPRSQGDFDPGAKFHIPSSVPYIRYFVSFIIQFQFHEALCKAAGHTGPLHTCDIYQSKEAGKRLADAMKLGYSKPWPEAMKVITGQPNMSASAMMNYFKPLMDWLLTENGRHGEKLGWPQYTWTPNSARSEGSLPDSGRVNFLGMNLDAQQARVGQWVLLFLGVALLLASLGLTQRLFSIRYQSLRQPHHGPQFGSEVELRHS

In the case of Val-Gln-Tyr (VQY) (peptide), the IC50 of inhibition of ACE activity (HHL as substrate, hippuric acid measured by RP-HPLC; 0.25–100 μM peptide, four-parameter logistic fit) is reported as 9.8 μM.
